The values below come from the supplement of paper PMC10567573.

The chains are these.
B1: SLC35F2 (parent)
chain: QYLAERYKVNTPMLQSFINYCLLF
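Note: lentivirally expressed fusions sorted by FACS into six bins by GFP to DsRed ratio, PSI derived from sequencing read proportions per bin multiplied by bin number.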

Variants of B1 are the subject of this data set. As to the kind of experiment: protein stability index of a GFP-peptide fusion (GPS, HEK-293T) (PSI 1-6); higher = more stable. Conditions: c terminus: a fixed tail appended.
Turning to QYLAERYKVNTPMLQEFINYCLLF, the protein stability index was found to be 2.19.

QYLAERYKVNTPMLQKFINYCLLF: the protein stability index was found to be 2.76.

In the case of QYLAERYKVNTPMLQLFINYCLLF, the protein stability index is 3.45.

Consider QYLAERYKVNTPMLQWFINYCLLF, for which the protein stability index amounted to 1.87.

Turning to QYLAERYKVNTPMLQFFINYCLLF, the protein stability index is 2.11.

With QYLAERYKVNTPMLQSFISYCLLF, the protein stability index is 2.38.

Turning to QYLAERYKVNTPMLQSFILYCLLF, the protein stability index worked out at 1.71.

As to QYLAERYKVNTPMLQSFIEYCLLF, the protein stability index is 2.22.

In the case of QYLAERYKVNTPMLQSFIGYCLLF, the protein stability index was determined as 2.7.

As for QYLAERYKVNTPMLQSFIRYCLLF, the protein stability index came out at 2.35.

QYLAERYKVNTPMLQSFIKYCLLF: the protein stability index is 2.56.

Regarding QYTAERYKVNTPMLQSFINYCLLF, the protein stability index came to 2.7.

In the case of QYGAERYKVNTPMLQSFINYCLLF, the protein stability index was 2.92.

Take QYAAERYKVNTPMLQSFINYCLLF: the protein stability index was determined as 3.3.

Regarding QYPAERYKVNTPMLQSFINYCLLF, the protein stability index was determined as 3.5.

In the case of QYFAERYKVNTPMLQSFINYCLLF, the protein stability index came out at 3.46.

Take QYEAERYKVNTPMLQSFINYCLLF: the protein stability index is 1.45.

Consider QYKAERYKVNTPMLQSFINYCLLF, for which the protein stability index stood at 2.43.

Take QYHAERYKVNTPMLQSFINYCLLF: the protein stability index worked out at 2.5.

As to QYLAERYKVNTFMLQSFINYCLLF, the protein stability index is 3.15.

Regarding QYLAERYKVNTWMLQSFINYCLLF, the protein stability index came out at 1.29.

In the case of QYLAERYKVNTSMLQSFINYCLLF, the protein stability index stood at 2.35.

For the variant QYLAERYKVNTGMLQSFINYCLLF, the protein stability index was found to be 2.73.

QYLAERPKVNTPMLQSFINYCLLF: the protein stability index was 2.98.

Consider QYLAERWKVNTPMLQSFINYCLLF, for which the protein stability index amounted to 1.84.

In the case of QYLAERDKVNTPMLQSFINYCLLF, the protein stability index is 2.49.

As for QYLAERTKVNTPMLQSFINYCLLF, the protein stability index amounted to 2.19.

Turning to QYLAERSKVNTPMLQSFINYCLLF, the protein stability index was 2.48.

For the variant QYLAERVKVNTPMLQSFINYCLLF, the protein stability index was 2.92.

As for QYLAERYKVNTPPLQSFINYCLLF, the protein stability index came out at 2.69.

For the variant QYLAERYKVNTPALQSFINYCLLF, the protein stability index stood at 3.48.

Consider QYLAERYKVNTPLLQSFINYCLLF, for which the protein stability index was found to be 1.83.

As to QYLAERYKVNTPDLQSFINYCLLF, the protein stability index was 2.2.

Regarding QYLAERYKVNTPTLQSFINYCLLF, the protein stability index stood at 2.74.

For the variant QYLAERYKVNTPFLQSFINYCLLF, the protein stability index came to 2.34.

On to QYLAERYKVNTPNLQSFINYCLLF, for which the protein stability index amounted to 3.77.

Take QYLAERYKVNTPMLQSFINYCLLC: the protein stability index was determined as 1.99.

In the case of QYLAERYKVNTPMLQSFINYCLLP, the protein stability index was determined as 3.94.

With QYLAERYKVNTPMLQSFINYCLLW, the protein stability index is 2.19.

As to QYLAERYKVNTPMLQSFINYCLLQ, the protein stability index worked out at 3.26.

Regarding QYLAERYKVNTPMLQSFINYCLLT, the protein stability index stood at 2.69.

For the variant QYLAERYKVNTPMLQSFINYCLLI, the protein stability index is 3.21.

In the case of QYLAERYKVNTPMLQSFINYMLLF, the protein stability index was 2.52.

For the variant QYLAERYKVNTPMLQSFINYKLLF, the protein stability index is 3.46.

As to QYLAERYKVNTPMLQSFINYVLLF, the protein stability index amounted to 1.62.

On to QYLAERYKVNTPMLQSFINYPLLF, for which the protein stability index is 2.55.

QYLAERYKVNTPMLQSFINYHLLF: the protein stability index came to 2.29.

QYLAERYKVNTPMLQSFINYNLLF: the protein stability index turned out to be 2.96.

For QYLAERYKVNTPMLQSFINYDLLF, the protein stability index amounted to 2.36.

As for QMLAERYKVNTPMLQSFINYCLLF, the protein stability index is 1.24.

Take QELAERYKVNTPMLQSFINYCLLF: the protein stability index came to 1.93.

Take QRLAERYKVNTPMLQSFINYCLLF: the protein stability index worked out at 2.1.

For the variant QCLAERYKVNTPMLQSFINYCLLF, the protein stability index came out at 2.17.

On to QPLAERYKVNTPMLQSFINYCLLF, for which the protein stability index worked out at 1.74.

In the case of QYLAEGYKVNTPMLQSFINYCLLF, the protein stability index was determined as 2.

As for QYLAEPYKVNTPMLQSFINYCLLF, the protein stability index was found to be 3.62.

In the case of QYLAELYKVNTPMLQSFINYCLLF, the protein stability index was found to be 2.11.

Consider QYLAESYKVNTPMLQSFINYCLLF, for which the protein stability index turned out to be 2.94.

On to QYLAEKYKVNTPMLQSFINYCLLF, for which the protein stability index was 2.42.

In the case of QYLAEEYKVNTPMLQSFINYCLLF, the protein stability index is 2.72.

For QYLAERYKVNTPMLQSFINYCLAF, the protein stability index is 2.27.

Take QYLAERYKVNTPMLQSFINYCLHF: the protein stability index amounted to 1.81.

As to QYLAERYKVNTPMLQSFINYCLNF, the protein stability index was determined as 2.59.

For QYLAERYKVNTPMLQSFINYCLPF, the protein stability index was 1.63.

QYLAERYKVNTPMLQSFINYCLQF: the protein stability index was determined as 1.3.

For QYLAERYKVNTPMLQSFINYCLSF, the protein stability index was 2.08.

Take QYLAERYKVNTPMLQSFINYCLTF: the protein stability index is 1.94.

For the variant QYLAERYKVNTPMLQSFINYCLKF, the protein stability index was determined as 1.64.

QYLAERYKVNTPMLQSFINYCLIF: the protein stability index stood at 3.19.

For the variant QYLAERYKVNTPMLQSFINYCLEF, the protein stability index turned out to be 1.78.

As to QYLAERYKVNTPMLQSFINYCLMF, the protein stability index was 2.7.

For QYLAERYKVNTPMLQSFINYCLRF, the protein stability index came out at 2.46.

As for QYLATRYKVNTPMLQSFINYCLLF, the protein stability index amounted to 2.14.

As to QYLAARYKVNTPMLQSFINYCLLF, the protein stability index worked out at 3.18.

As to QYLACRYKVNTPMLQSFINYCLLF, the protein stability index turned out to be 3.78.

In the case of QYLAGRYKVNTPMLQSFINYCLLF, the protein stability index was determined as 2.03.

Take QYLAERYKVSTPMLQSFINYCLLF: the protein stability index stood at 2.36.

QYLAERYKVETPMLQSFINYCLLF: the protein stability index was determined as 2.2.

On to QYLAERYKVVTPMLQSFINYCLLF, for which the protein stability index stood at 2.92.

For QYLAERYKVMTPMLQSFINYCLLF, the protein stability index was found to be 2.96.

For QYLAERYKVPTPMLQSFINYCLLF, the protein stability index came to 1.68.

On to QYLAERYKVATPMLQSFINYCLLF, for which the protein stability index came to 2.09.

Regarding QYLAERYKVGTPMLQSFINYCLLF, the protein stability index came to 2.54.

With QYLAERYKVLTPMLQSFINYCLLF, the protein stability index was found to be 3.17.

With SYLAERYKVNTPMLQSFINYCLLF, the protein stability index is 2.47.

With IYLAERYKVNTPMLQSFINYCLLF, the protein stability index was 2.1.

Consider WYLAERYKVNTPMLQSFINYCLLF, for which the protein stability index was 2.68.

CYLAERYKVNTPMLQSFINYCLLF: the protein stability index is 3.23.

For RYLAERYKVNTPMLQSFINYCLLF, the protein stability index was 1.94.

For the variant QYLAERYKVNTPMLQSFINDCLLF, the protein stability index amounted to 1.81.

On to QYLAERYKVNTPMLQSFINSCLLF, for which the protein stability index is 2.3.

As to QYLAERYKVNTPMLQSFINCCLLF, the protein stability index is 2.64.

In the case of QYLAERYKVNTPMLQSFINWCLLF, the protein stability index came to 2.03.

With QYLAERYKVNTPMLQSFINVCLLF, the protein stability index amounted to 2.78.
